Key:
[1] = test system: hCD32a-H131, hCD32a-R131, hCD32b, hCD16a-V158, hCD64; test: Fortebio Octet BLI binding of protein A-captured antibodies to FcgR analytes; design: species or system human; settings: expression supernatants
Method: (§1) The binding of antibodies to Fc gamma receptors (FcγRs or FcgRs) was studied using biosensor technologies including Biacore surface plasmon resonance (SPR) and Fortebio Biolayer Interferometry (BLI). SPR studies were performed on a Biacore T100 instrument (GE Healthcare) at 25° C. The Fab fragment from a murine anti-6×His antibody was immobilized on a CM5 sensor chip using EDC/NHS to a density of ˜3000 RU. Various his-tagged FcgRs (7 ug/ml) were captured via the C-terminal his-tag using a contact time of 30 s at 10 ul/min, and the binding of 1.0 μM antibody was evaluated in a running buffer of 10 mM NaPO4, 130 mM NaCl, 0.05% p20 (PBS-T) pH 7.1. FcgRs used for these experiments included CD64 (FcgRI), CD32a-H131 (FcgRIIa-H131), CD32a-R131 (FcgRIIa-R131), CD32b (FcgRIIb), CD16a-V158 (FcgRIIIa-V158), CD16b-NA1 (FcgRIIIb-NA1), and CD16B-NA2 (FcgRIIIb-NA2). BLI experiments were performed on a Fortebio Octet RED instrument (Pall, Fortebio) at 25° C. in 10 mM NaPO4, 130 mM NaCl, 0.05% p20 (PBS-T) pH 7.1. Antibodies were captured out of undiluted expression supernatants on protein A coated sensors, followed by the binding of 1 μM hCD32a-H131, hCD32a-R131, hCD32b, hCD16a-V158, or 0.1 μM hCD64 analytes.
The next set of constructs was used to engineer effector function into the otherwise effector function negative IgG2 isotype. […]

[2] = test system: human FcγRs; test: SPR binding profile to human FcγRs (panel)
Method: Binding of the constructs to human FcγRs was measured via SPR. hCD64 and hCD32a-H131 binding data for IgG1.1 and IgG2 molecules were consistent with expected values for the different Fcs. IgG1.1f is the most inert Fc.
as §1
This engineering strategy was further explored by producing other antibodies formatted with IgG2.3G1-AY, IgG2.3G1-AY-S267E (IgG2.3G1-AY-V27), as well as IgG2-B-form variants (IgG2.5G1-AY and IgG2.5G1-AY-V27), and other hybrid antibodies containing different combinations of IgG1 and IgG2 constant domains, and testing the binding of these antibodies to anti-his Fab captured his-tagged FcgRs using Biacore SPR technology.

Row | FcgR binding profile by BLI (in words) [1] | Molecule | FcgR binding properties by SPR (in words) [2]
1 | appreciable binding to only CD32a-H131 | IgG2.3: antibody with IgG2 constant region with C219S (protein, left off: another chain or arm of the molecule, antibody with IgG2 constant region with C219S) constant: ASTKGPSVFPLAPCSRSTSESTAALGCLVKDYFPEPVTVSWNSGALTSGVHTFPAVLQSSGLYSLSSVVTVPSSNFGTQTYTCNVDHKPSNTKVDKTVERKSCVECPPCPAPPVAGPSVFLFPPKPKDTLMISRTPEVTCVVVDVSHEDPEVQFNWYVDGVEVHNAKTKPREEQFNSTFRVVSVLTVVHQDWLNGKEYKCKVSNKGLPAPIEKTISKTKGQPREPQVYTLPPSREEMTKNQVSLTCLVKGFYPSDIAVEWESNGQPENNYKTTPPMLDSDGSFFLYSKLTVDKSRWQQGNVFSCSVMHEALHNHYTQKSLSLSPGK | –
2 | – | IgG2.3plusTHT: modified IgG2.3 constant region construct (protein, Synthetic: IgG2.3-plusTHT, modified IgG2.3 constant region construct) ASTKGPSVFPLAPCSRSTSESTAALGCLVKDYFPEPVTVSWNSGALTSGVHTFPAVLQSSGLYSLSSVVTVPSSNFGTQTYTCNVDHKPSNTKVDKTVERKSCVETHTCPPCPAPPVAGPSVFLFPPKPKDTLMISRTPEVTCVVVDVSHEDPEVQFNWYVDGVEVHNAKTKPREEQFNSTFRVVSVLTVVHQDWLNGKEYKCKVSNKGLPAPIEKTISKTKGQPREPQVYTLPPSREEMTKNQVSLTCLVKGFYPSDIAVEWESNGQPENNYKTTPPMLDSDGSFFLYSKLTVDKSRWQQGNVFSCSVMHEALHNHYTQKSLSLSPGK | unable to retain IgG1f-like FcgR binding properties
3 | – | IgG2.3plusGGG: modified IgG2.3 constant region construct (protein, Synthetic: IgG2.3-plusGGG, modified IgG2.3 constant region construct) ASTKGPSVFPLAPCSRSTSESTAALGCLVKDYFPEPVTVSWNSGALTSGVHTFPAVLQSSGLYSLSSVVTVPSSNFGTQTYTCNVDHKPSNTKVDKTVERKSCVEGGGCPPCPAPPVAGPSVFLFPPKPKDTLMISRTPEVTCVVVDVSHEDPEVQFNWYVDGVEVHNAKTKPREEQFNSTFRVVSVLTVVHQDWLNGKEYKCKVSNKGLPAPIEKTISKTKGQPREPQVYTLPPSREEMTKNQVSLTCLVKGFYPSDIAVEWESNGQPENNYKTTPPMLDSDGSFFLYSKLTVDKSRWQQGNVFSCSVMHEALHNHYTQKSLSLSPGK | unable to retain IgG1f-like FcgR binding properties
4 | – | IgG2.5plusTHT: modified IgG2.5 constant region construct (protein, Synthetic: IgG2.5-plusTHT, modified IgG2.5 constant region construct) ASTKGPSVFPLAPSSRSTSESTAALGCLVKDYFPEPVTVSWNSGALTSGVHTFPAVLQSSGLYSLSSVVTVPSSNFGTQTYTCNVDHKPSNTKVDKTVERKCCVETHTCPPCPAPPVAGPSVFLFPPKPKDTLMISRTPEVTCVVVDVSHEDPEVQFNWYVDGVEVHNAKTKPREEQFNSTFRVVSVLTVVHQDWLNGKEYKCKVSNKGLPAPIEKTISKTKGQPREPQVYTLPPSREEMTKNQVSLTCLVKGFYPSDIAVEWESNGQPENNYKTTPPMLDSDGSFFLYSKLTVDKSRWQQGNVFSCSVMHEALHNHYTQKSLSLSPGK | unable to retain IgG1f-like FcgR binding properties

Source: patent US10100129B2, “Antibodies against CD73 and uses thereof” (BRISTOL-MYERS SQUIBB COMPANY, priority 2014, dated 2018)
